Columns and labels:
[1] = biological target: full-length C. elegans TRPML1 (CUP-5), WT (C. elegans); assay: cryo-EM structure
[2] = biological target: T1, human TRPML1 protein (SDS-PAGE, data not shown) (human), Q9GZU1; assay: reducing SDS-PAGE; conditions: remark: other sources report otherwise
T1 chain: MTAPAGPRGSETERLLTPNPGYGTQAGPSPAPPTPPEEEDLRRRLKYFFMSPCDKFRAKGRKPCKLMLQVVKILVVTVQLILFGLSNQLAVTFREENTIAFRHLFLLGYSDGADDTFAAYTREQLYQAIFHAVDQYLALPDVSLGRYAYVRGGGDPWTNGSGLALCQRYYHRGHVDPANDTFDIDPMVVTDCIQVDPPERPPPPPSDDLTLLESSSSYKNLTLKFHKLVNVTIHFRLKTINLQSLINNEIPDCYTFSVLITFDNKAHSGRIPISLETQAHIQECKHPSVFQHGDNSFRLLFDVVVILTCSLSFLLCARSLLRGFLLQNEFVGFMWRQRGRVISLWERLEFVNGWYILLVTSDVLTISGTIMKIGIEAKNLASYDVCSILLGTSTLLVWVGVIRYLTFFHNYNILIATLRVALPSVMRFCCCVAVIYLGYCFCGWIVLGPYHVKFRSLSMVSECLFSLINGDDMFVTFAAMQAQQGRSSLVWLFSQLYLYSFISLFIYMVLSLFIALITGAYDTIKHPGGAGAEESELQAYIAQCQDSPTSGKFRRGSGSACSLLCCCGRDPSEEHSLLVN

[3] = biological target: the molecule itself; assay: crystal structure

Molecule: full-length C. elegans TRPML1 (CUP-5), WT (natural protein)
- stoichiometry N [1]: 4

B1: human TRPML1 protein (SDS-PAGE, data not shown), Q9GZU1 1-580 (natural protein)
chain: T1 chain
- stoichiometry N [2]: 4

B2: human TRPML1 I-II linker (G84-S296) (domain or fragment, UniProt Q9GZU1 84-296, looked up)
chain: GLSNQLAVTFREENTIAFRHLFLLGYSDGADDTFAAYTREQLYQAIFHAVDQYLALPDVSLGRYAYVRGGGDPWTNGSGLALCQRYYHRGHVDPANDTFDIDPMVVTDCIQVDPPERPPPPPSDDLTLLESSSSYKNLTLKFHKLVNVTIHFRLKTINLQSLINNEIPDCYTFSVLITFDNKAHSGRIPISLETQAHIQECKHPSVFQHGDNS
- stoichiometry N [3]: 4
